Patent US20090209615A1, “INHIBITORS OF MATRIX METALLOPROTEINASES TO TREAT NEUROLOGICAL DISORDERS” (priority 2004, published 2009)

Assay: Stability of S-nitrosothiols (NAT conversion from DAN)
Conditions: within 15 min of incubation

B1: S-nitroso-MMP-9: S-nitrosylation product of SNOC-treated R-proMMP-9 (protein, UniProt P14780 20-707, looked up)
pro-form: APRQRQSTLVLFPGDLRTNLTDRQLAEEYLYRYGYTRVAEMRGESKSLGPALLLLQKQLSLPETGELDSATLKAMRTPRCGVPDLGRFQTFEGDLKWHHHNITYWIQNYSEDLPRAVIDDAFARAFALWSAVTPLTFTRVYSRDADIVIQFGVAEHGDGYPFDGKDGLLAHAFPPGPGIQGDAHFDDDELWSLGKGVVVPTRFGNADGAACHFPFIFEGRSYSACTTDGRSDGLPWCSTTANYDTDDRFGFCPSERLYTQDGNADGKPCQFPFIFQGQSYSACTTDGRSDGYRWCATTANYDRDKLFGFCPTRADSTVMGGNSAGELCVFPFTFLGKEYSTCTSEGRGDGRLWCATTSNFDSDKKWGFCPDQGYSLFLVAAHEFGHALGLDHSSVPEALMYPMYRFTEGPPLHKDDVNGIRHLYGPRPEPEPRPPTTTTPQPTAPPTVCPTGPPTVHPSERPTAGPTGPPSAGPTGPPTAGPSTATTVPLSPVDDACNVNIFDAIAEIGNQLYLFKDGKYWRFSEGRGSRPQGPFLIADKWPALPRKLDSVFEERLSKKLFFFSGRQVWVYTGASVLGPRRLDKLGLGADVAQVTGALRSGRGKMLLFSGRRLWRFDVKAQMVDPRSASEVDRMFPGVPLDTHDVFQYREKAYFCQDRFYWRVSSRSELNQVDQVGYVTYDILQCPED
modifications: pro-form S-nitrosylated
  remained: over 80%
